Where “and” joins values, the source holds several entries; their conditions need not be identical. Equal entries are not always repeated.

Experiment [1] deals with T1, Lag3 on Lag3+ NFAT Jurkat effector cells (Promega #CS194801). Put plainly: cell-based or functional assay.
Experiment [2] has as its target T1, Lag3 on Lag3+ NFAT Jurkat effector …. Put plainly: cell-based or functional assay. The source holds these as a separate data set.
Experiment [3] addresses T2, murine LAG3-Fc antigen (R&D Systems, 3328-L3-050) (murine, UniProt Q61790 24-442).
T2 construct: Bought reagent
T2 sequence (looked up): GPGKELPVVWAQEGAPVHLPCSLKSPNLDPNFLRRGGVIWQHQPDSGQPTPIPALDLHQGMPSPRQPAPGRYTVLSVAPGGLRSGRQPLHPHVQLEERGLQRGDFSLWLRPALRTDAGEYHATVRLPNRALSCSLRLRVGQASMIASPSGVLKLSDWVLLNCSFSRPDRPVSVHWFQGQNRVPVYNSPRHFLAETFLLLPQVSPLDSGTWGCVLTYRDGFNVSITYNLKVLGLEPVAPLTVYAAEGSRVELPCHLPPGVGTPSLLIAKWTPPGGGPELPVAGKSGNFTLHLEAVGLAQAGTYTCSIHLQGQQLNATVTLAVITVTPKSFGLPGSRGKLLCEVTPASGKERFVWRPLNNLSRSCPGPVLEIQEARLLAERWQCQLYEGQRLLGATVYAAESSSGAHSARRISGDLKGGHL
Put plainly: ELISA using murine LAG3-Fc antigen. For orientation: In an ELISA, binding on a coated surface is turned into a signal by an enzyme label.

Experiment [4] has as its target T3, human LAG3 on recombinant CHO cells (human, UniProt P18627 23-525).
T3 construct: whole, on cells; also called Lag3 cells; recombinant CHO cells expressing Lag3
T3 sequence (looked up): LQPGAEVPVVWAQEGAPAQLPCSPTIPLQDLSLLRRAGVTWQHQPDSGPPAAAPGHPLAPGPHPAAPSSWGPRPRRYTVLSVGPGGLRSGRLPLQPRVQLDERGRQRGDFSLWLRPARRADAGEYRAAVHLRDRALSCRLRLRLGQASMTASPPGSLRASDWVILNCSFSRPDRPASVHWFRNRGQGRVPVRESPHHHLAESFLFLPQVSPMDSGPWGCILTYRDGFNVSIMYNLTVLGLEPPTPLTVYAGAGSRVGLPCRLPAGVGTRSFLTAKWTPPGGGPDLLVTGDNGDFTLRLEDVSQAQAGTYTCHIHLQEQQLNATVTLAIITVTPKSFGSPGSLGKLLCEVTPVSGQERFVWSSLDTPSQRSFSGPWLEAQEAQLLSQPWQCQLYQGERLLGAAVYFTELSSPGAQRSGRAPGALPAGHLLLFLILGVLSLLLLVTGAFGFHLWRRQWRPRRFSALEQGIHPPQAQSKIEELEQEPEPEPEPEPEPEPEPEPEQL
The experiment can be described thus: cell ELISA on CHO cells expressing human LAG3.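 Also: bivalent Fc-format binders titrated in threefold steps from 6 µg/mL, incubated with the cells 2 h at 4 °C, bound antibody detected by HRP-coupled anti-human IgG.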

Experiment [5] has as its target T4, recombinant human LAG3 Fc Chimera Protein (R&D Systems, 2319-L3) (human, UniProt P18627 23-450).
T4 construct: Bought reagent
T4 sequence (looked up): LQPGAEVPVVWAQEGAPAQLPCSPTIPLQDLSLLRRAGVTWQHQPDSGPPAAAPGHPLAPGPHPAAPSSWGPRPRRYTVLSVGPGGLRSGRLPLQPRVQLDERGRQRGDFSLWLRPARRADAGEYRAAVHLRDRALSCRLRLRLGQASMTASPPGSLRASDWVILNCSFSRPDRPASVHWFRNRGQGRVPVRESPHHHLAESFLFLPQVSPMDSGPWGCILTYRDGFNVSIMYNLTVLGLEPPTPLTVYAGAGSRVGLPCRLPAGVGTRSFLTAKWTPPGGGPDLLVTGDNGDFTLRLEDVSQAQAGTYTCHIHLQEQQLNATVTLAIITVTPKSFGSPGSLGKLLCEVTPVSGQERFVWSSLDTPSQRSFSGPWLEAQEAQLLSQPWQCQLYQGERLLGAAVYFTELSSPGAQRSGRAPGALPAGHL
The experiment can be described thus: ELISA, plate coated with human LAG3 Fc chimera.

In experiment [6] the target is T5, Lag3 on cynomolgus PBMC/T cells (cynomolgus).
T5 construct: whole, on cells
Put plainly: flow cytometry, non-activated cynomolgus PBMC, 10 µg/ml. For orientation: Flow cytometry measures light scatter and fluorescence of single cells or particles in a stream.

Experiment [7] addresses T5, Lag3 on cynomolgus PBMC/T cells. Put plainly: flow cytometry, CD3/CD28-activated cynomolgus PBMC, 10 µg/ml.
The target in experiment [8] is T4, recombinant human LAG3 Fc Chimera …. The experiment can be described thus: SPR (Biacore), aVH-Fc captured by anti-human Fc, human LAG-3 Fc chimera as analyte, 25 C.
In experiment [9] the target is T6, soluble human Lag3-IgG1-Fc with biotinylated C-terminal Avi-tag (human, biotin on the C-terminal Avi-tag).
T6 construct: also called LAG3-Fc-avi; biotinylated LAG3-Fc antigen
Put plainly: A375 MHCII competition ELISA, biotinylated Lag3 250 ng/ml; competitor MHCII on A375 cells.

Experiment [10] deals with T6, soluble human Lag3-IgG1-Fc with …. The experiment can be described thus: A375 MHCII competition ELISA at 3 µg/ml, biotinylated Lag3 250 ng/ml; competitor MHCII on A375 cells.
Experiment [11] concerns the target T7, biotinylated MCSP antigen (amino acids 1553 to 2184 of matured melanoma-associated chondroitin sulfate … (Homo sapiens (Human), UniProt Q6UVK1 1582-2213, limits assumed, biotin on the C-terminal avi-tag)).
T7 construct: The entry may include the leader; also called recombinant MCSP
T7 sequence: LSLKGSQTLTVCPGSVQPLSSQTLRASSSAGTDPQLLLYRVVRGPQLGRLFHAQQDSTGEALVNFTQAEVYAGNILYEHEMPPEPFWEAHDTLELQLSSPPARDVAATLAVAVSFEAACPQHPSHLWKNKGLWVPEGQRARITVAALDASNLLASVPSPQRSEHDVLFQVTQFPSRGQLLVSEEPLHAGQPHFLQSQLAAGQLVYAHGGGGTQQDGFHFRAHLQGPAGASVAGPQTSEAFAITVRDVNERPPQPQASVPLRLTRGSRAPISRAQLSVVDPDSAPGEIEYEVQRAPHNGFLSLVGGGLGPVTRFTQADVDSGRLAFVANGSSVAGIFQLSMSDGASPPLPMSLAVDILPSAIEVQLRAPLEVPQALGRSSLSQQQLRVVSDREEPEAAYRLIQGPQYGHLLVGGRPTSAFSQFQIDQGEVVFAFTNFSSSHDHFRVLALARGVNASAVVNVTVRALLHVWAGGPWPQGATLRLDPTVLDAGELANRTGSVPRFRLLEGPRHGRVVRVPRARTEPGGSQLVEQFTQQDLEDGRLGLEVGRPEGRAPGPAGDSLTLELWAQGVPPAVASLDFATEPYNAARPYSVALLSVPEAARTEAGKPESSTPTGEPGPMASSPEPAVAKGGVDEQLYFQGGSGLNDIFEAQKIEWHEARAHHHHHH
Put plainly: ELISA, biotinylated MCSP antigen on neutravidin plates, bacterial supernatants, anti-Flag/HRP.

For experiment [12], the target named is T8, biotinylated DR5-Fc-avi (extracellular domain of Death receptor 5, amino acids 1 to 152, fused to human IgG1 … (biotin on the C-terminal avi-tag)).
T8 construct: also called DRS; Death receptor 5 ECD
Put plainly: ELISA, biotinylated DR5 antigen on neutravidin plates, bacterial supernatants, anti-Flag/HRP.

Experiment [13] deals with T4, recombinant human LAG3 Fc Chimera …. Put plainly: SPR (Biacore), antibody captured by anti-human Fc, human LAG-3 Fc chimera as analyte, 25 C.
Experiment [14] shares this target. The experiment can be described thus: SPR (Biacore), aVH-Fc captured by anti-human Fc, human LAG-3 Fc chimera as analyte, 25 C; * poor fit. (In SPR one partner is held on a chip, and binding of the other changes the refractive index at the surface.)

B1: bivalent P10D1 aVH-Fc (Fc fusion)
chain: EVQLVESGGGLVQPGGSLRLSCAASGFSIKDTCIAWVRRAPGKGTELVAEICEDIGYTRYADSVKGRFTISADTSKNTAYLQMNSLRAEDTAVYYCAAKEAGVGFDYWGQGTTVTVSSGGGGSGGGGSDKTHTCPPCPAPEAAGGPSVFLFPPKPKDTLMISRTPEVTCVVVDVSHEDPEVKFNWYVDGVEVHNAKTKPREEQYNSTYRVVSVLTVLHQDWLNGKEYKCKVSNKALGAPIEKTISKAKGQPREPQVYTLPPSRDELTKNQVSLTCLVKGFYPSDIAVEWESNGQPENNYKTTPPVLDSDGSFFLYSKLTVDKSRWQQGNVFSCSVMHEALHNHYTQKSLSLSPGK
In general, EC50 refers to the concentration at which the effect is half-maximal. What is called koff is a measure of how fast the partners let go of each other. The IC50 is the midpoint of a concentration-inhibition curve. A higher IC50 goes with weaker potency in that assay. One may read the % Inhibition as the relative decrease from the control value, in per cent. A low value points to a weak effect. For B1, the “EC50 of restoration of the NFAT luciferase signal (NFAT Lag3 reporter assay: Lag3+ Jurkat, Raji cells, SED)” value in experiment [1] is 4.14 µg/mL. The “IC50 for near-complete reduction of luciferase activity (modified NFAT Lag3 reporter assay, Lag3+ Jurkat cells alone)” value in experiment [2] was found to be 0.104 µg/mL. Also, the binding result in experiment [3] was “no binding”. In experiment [4], the EC50 was 0.029 µg/mL and 0.4 nM; the OD max was 1.2 OD. Also, in [5], the EC50 is 0.113 µg/mL and 1.5 nM; the OD max was found to be 0.9 OD. In experiment [6], the “Percentage of Lag3 positive cells” value was 16.9%. For the same molecule, in experiment [7], the “Percentage of Lag3 positive cells” value stood at 61.7%. Moreover, in experiment [8], the koff was found to be 0.00011 s⁻¹ and the t1/2 stood at 102 min. For the same molecule, the IC50 in [9] is 0.0933 µg/mL and 1.2 nM. Moreover, the “% Inhibition” value in experiment [10] is 93.4%.

B2: SEQ ID NO 59 (VHH)
VHH: EVQLVESGGGLVQPGGSLRLSCAASSFNIKDTYIGWVRRAPGKGTELVADIYCSEGSTRYADSVKGRFTISCDTSKNTAYLQMNSLRAEDTAVYYCAAVSDYVVFYYWGQGTTVTVSS
notes: is one of clones 3, 25, 44, 57.1; also called MCSP-specific aVH
On to B2, for which, in [11], the binding result is “binds”.

B3: SEQ ID NO 24 (VHH)
VHH: EVQLVESGGGLVQPGGSLRLSCAASGFNIKDTYIGWVRRAPGKGEELVARIYPTNGYTRYADSVKGRFTISADTSKNTAYLQMNSLRAEDTAVYYCAKYYPRTYLDFDYWGQGTLVTVSS
notes: Tested as bacterial supernatant; the range 21-28 may alternate DNA and protein entries
As for B3, the binding result in experiment [12] was “binds”.

B4: control antibody MDX25F7 (antibody, V domains shown)
VH: QVQLQQWGAGLLKPSETLSLTCAVYGGSFSDYYWNWIRQPPGKGLEWIGEINHNGNTNSNPSLKSRVTLSLDTSKNQFSLKLRSVTAADTAVYYCAFGYSDYEYNWFDPWGQGTLVTVSS
VL: EIVLTQSPATLSLSPGERATLSCRASQSISSYLAWYQQKPGQAPRLLIYDASNRATGIPARFSGSGSGTDFTLTISSLEPEDFAVYYCQQRSNWPLTFGQGTNLEIK
B4: the OD max in experiment [4] was found to be 2.06 OD. In [5], the EC50 was 0.0031 µg/mL and 0.02 nM; the OD max worked out at 3.39 OD. In addition, the IC50 in experiment [9] is 0.127 µg/mL and 0.8 nM. Further, in [13], the koff was determined as 0.00039 s⁻¹ and the t1/2 stood at 30 min. In experiment [10], the “% Inhibition” value came out at 90.4%.

B5: bivalent P11A2 aVH-Fc (Fc fusion)
chain: EVQLVESGGGLVQPGGSLRLSCAASSFNIKDTYIGWVRRAPGKGTELVAEIACHEGTTRYADSVKGRFTISCDTSKNTAYLQMNSLRAEDTAVYYCANTEYDDIFDYWGQGTTVTVSSGGGGSGGGGSDKTHTCPPCPAPEAAGGPSVFLFPPKPKDTLMISRTPEVTCVVVDVSHEDPEVKFNWYVDGVEVHNAKTKPREEQYNSTYRVVSVLTVLHQDWLNGKEYKCKVSNKALGAPIEKTISKAKGQPREPQVYTLPPSRDELTKNQVSLTCLVKGFYPSDIAVEWESNGQPENNYKTTPPVLDSDGSFFLYSKLTVDKSRWQQGNVFSCSVMHEALHNHYTQKSLSLSPGK
For the molecule B5, in experiment [3], the binding result is reported as “no binding”. Further, the EC50 in [4] was 0.0169 µg/mL and 0.2 nM. Also, the OD max was found to be 1.2 OD in experiment [4] and 1.3 OD in [5]. In addition, the t1/2 in experiment [8] is 2.4 min. Besides, the IC50 in experiment [9] is 0.0903 µg/mL and 1.2 nM. Moreover, in experiment [14], the koff came out at 0.0048 s⁻¹. The “% Inhibition” value in [10] was 92.4%.

B6: SEQ ID NO 61 (VHH)
VHH: EVQLVESGGGLVQPGGSLRLSCAASSFNIKDTYIGWVRRAPGKGTELVAGIYCEAGITRYADSVKGRFTISCDTSKNTAYLQMNSLRAEDTAVYYCAGKGIGNYFDYWGQGTTVTVSS
notes: as for B2
For B6, the binding result in experiment [11] is “binds”.

B7: SEQ ID NO 22 (VHH)
VHH: EVQLVESGGGLVQPGGSLRLSCAASGFNIKDTYIGWVRRAPGKGEELVARIYPTNGYTRYADSVKGRFTISADTSKNTAYLQMNSLRAEDTAVYYCAKYVRYFDYWGQGTLVTVSS
notes: as for B3
On to B7, for which, in experiment [12], the binding result is “binds”.

B8: SEQ ID NO 28 (VHH)
VHH: EVQLVESGGGLVQPGGSLRLSCAASGFNIKDTYIGWVRRAPGKGEELVARIYPTNGYTRYADSVKGRFTISADTSKNTAYLQMNSLRAEDTAVYYCAKRSHYSYFDYWGQGTLVTVSS
notes: as for B3
With B8, in [12], the binding result is recorded as “binds”.

Source of the values: patent US20200354457A1 (Hoffmann-La Roche, published 2020).
